Drawing on patent US20150376260A1, this text covers cancer killing activity (in-vitro bioassay, MTS cell viability) on lymphatic cancer cells for one substance.

In assay [1] the target is CD80 (B7.1), human, on lymphatic cancer cell lines (human) (UniProt P33681). Put plainly: cell-based or functional assay.
Assay [2] concerns the target CD86 (B7.2), human, on lymphatic cancer cell lines (human) (UniProt P42081). As to the kind of experiment: cell-based or functional assay.
Sequence of UniProt P42081 (P42081 24-329): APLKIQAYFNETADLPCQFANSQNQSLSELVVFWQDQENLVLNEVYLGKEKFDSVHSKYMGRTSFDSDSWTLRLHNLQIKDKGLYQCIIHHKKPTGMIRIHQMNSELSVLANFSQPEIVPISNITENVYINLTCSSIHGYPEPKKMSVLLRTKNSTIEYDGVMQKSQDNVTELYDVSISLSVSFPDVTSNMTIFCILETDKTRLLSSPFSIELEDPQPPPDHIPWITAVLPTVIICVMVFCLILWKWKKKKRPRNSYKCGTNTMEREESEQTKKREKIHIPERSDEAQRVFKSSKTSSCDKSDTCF

Sequence of UniProt P33681 (P33681 35-288): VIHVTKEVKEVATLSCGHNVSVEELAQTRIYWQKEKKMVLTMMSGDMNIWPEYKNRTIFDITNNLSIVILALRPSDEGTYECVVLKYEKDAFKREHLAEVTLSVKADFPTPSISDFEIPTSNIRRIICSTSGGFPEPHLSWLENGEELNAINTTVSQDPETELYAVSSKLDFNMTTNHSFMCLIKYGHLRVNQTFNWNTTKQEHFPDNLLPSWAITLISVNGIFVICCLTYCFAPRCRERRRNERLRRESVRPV

For CTLA4-FasL fusion protein, the cancer killing activity (in-vitro bioassay, MTS cell viability) on lymphatic cancer cells in assay [1] and in assay [2] was 0.02 nM in each case.
